Assay results from a protein production outcome set (Wang et al. 2014).

Assay: label from the status in PepcDB records
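Also: failed if final PepcDB status was selected cloned or expressed and not failed if soluble or beyond.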

| Sequence | protein production |
| --- | --- |
| GEERKSSSWGRVDAMELPNYSRQLLQQLYTLCKEQQFCDCTISIGTIYFRAHKLVLAAASLLFKTLLDNTDTISIDASVVSPEEFALLLEMMYTGKLPVGKHNFSKIISLADSLQMFDVAVSCKNLLTSLVNCSVQGQVVRDVSAPSSETFRKEPEKPQVEILSSEGAGEPHSSPELAATPGGPVKAETEEAAHSVSQEMSVNSPTAQESQRNAETPAETPTTAEACSPSPPVQTFSEAKKTSTEPGCERKHYQLNFLLENEGVFSDALMVTQDVLKKLEMCSEIKGPQKEMIVKCFEGEGGHSAFQRILGKVREESLDVQTVVSLLRLYQYSNPAVKTALLDRKPEDVDTVQPKGSTEEGKTLSVLLLEHKEDLIQCVTQLRPIMESLETAKEEFLTGTEKRVILNCCEGRTPKETIENLLHRMTEEKTLTAEGLVKLLQAVKTTFPNLGLLLEKLQKSATLPSTTVQPSPDDYGTELLRRYHENLSEIFTDNQILLKMISHMTSLAPGEREVMEKLVKRDSGSGGFNSLISAVLEKQTLSATAIWQLLLVVQETKTCPLDLLMEEIRREPGADAFFRAVTTPEHATLETILRHNQLILEAIQQKIECKLFTSEEEHLAETVKEILSIPSETASPEASLRAVLSRAMEKSVPAIEICHLLCSVHKSFPGLQPVMQELAYIGVLTKEDGEKETWKVSNKFHLEANNKEDEKAAKEDSQPGEQNDQGETGSLPGQQEKEASASPDPAKKSFICKACDKSFHFYCRLKVHMKRCRVAKSKQVQCKECSETKDSKKELDKHQLEAHGAGGEPDAPKKKKKRLPVTCDLCGREFAHASGMQYHKLTEHFDEKPFSCEECGAKFAANSTLKNHLRLHTGDRPFMCKHCLMTFTQASALAYHTKKKHSEGKMYACQYCDAVFAQSIELSRHVRTHTGDKPYVCRDCGKGFRQANGLSIHLHTFHNIEDPYDCKKCRMSFPTLQDHRKHIHEVHSKEYHPCPTCGKIFSAPSMLERHMVTHVGGKPFSCGICNKAYQQLSGLWYHNRTHHPDVFAAQNHRSSKFSSLQCSSCDKTFPNTIEHKKHIKAEHADMKFHECDQCKELFPTPALLQVHVKCQHSGSQPFRCLYCAATFRFPGALQHHVTTEHFKQSETTFPCELCGELFTSQAQLDSHLESEHPKVMSTETQAAASQMAQVIQTPEPVAPTEQVITLEETQLAGSQVFVTLPDSQASQASSELVAVTVEDLLDGTVTLICGEAK | not failed |
| GEVKQIVGTPRDITQRKRREQMLKSRRRKIEALYRATSGLLSVETRDAVPGRIAEVLQEVFDFPLRHVGLVEGEMLVPKETVGEDLSRMPEPKAQPLSEDLVATRAIQAGEAVVVESTGGLENDLDYGTLSTLAGIPIGGHGAVVVGKEAGTFDALDLRLLEVLGGYGTLVLGRLEREERLVQAREEAEEAAQLKSAMLANMSHEVRTP | failed |
| GGVMHYTDKAALPADGEAREVAALFDTWNAALATGNPHKVADLYAPDGVLLPTVSNEVRASREQIENYFEMFLTKKPKGVINYRTVRLLDDDSAVDAGVYTFTLTDKNGKKSDVQARYTFVYEKRDGKWLIINHHSSAMPEVDTATATAAVTKAK | not failed |
| GHMEERVLGMPAVESNMFPLGKQAPPFALTNVIDGNVVRLEDVKSDAATVIMFICNHCPFVKHVQHELVRLANDYMPKGVSFVAINSNDAEQYPEDSPENMKKVAEELGYPFPYLYDETQEVAKAYDAACTPDFYIFDRDLKCVYRGQLDDSRPNNGIPVTGESIRAALDALLEGRPVPEKQKPSIGCSIKWKPSA | not failed |
| GHMPTKQQLLYEGKAKKIYATDEPDVLWVEYKDSATAFNGEKKATIAGKGRLNNEISSLLFLKLREAGIANHFIEKLSPTEQLVRRVTIIPLEVVVRNVVAGSLAKRIGLEEGTPLEAPLVEFYYKNDDLGDPLLLEDHIFILKLASREEVAALKQAALAVNDVLRLHFAERNVRLIDFKLEFGRTADGAILLADEISPDTCRLWDAKTNEKLDKDVFRRDLGSLTDAYEVILQRLGGESACTK | not failed |
| GHPTEVLCLMNMVLPEELLDDEEYEEIVEDVRDECSKYGLVKSIEIPRPVDGVEVPGCGKIFVEFTSVFDCQKAMQGLTGRKFANRVVVTKYCDPDSYHRRDFW | not failed |
| GIPSLVATAERRMKLVPGSVVMQFASIGFDVAVFELSMALCTGSRLVIVPDESRVAGPELTDFMAAHAVTHAIIPPSLLAALPSGCDVPEGCTVLVGTETVPPELIGRWAERLNLLAAYGLTEATVNNTLWQAQPGWDSAVPIGIP | failed |
| GKIVEIGVGFYLEVAKRLRESGIDILVVDINEKAINYARKQGIKGVVDDIFNPTLGIYKDAKAIYSIRPAPEMMKPLLDLARKLKIPLYIVPLTGDR | failed |
| GKSFDAVRRTLSTELAQLRDDISRLMQAAVEAGAEAADDGEAVVISGERKLLDVTDIASDMDRLRKMFSLFEKKTDLLQLLDVSSRAQGVQIYIGGDSQLVPMEEVSVITAPYGVDGKVIGTLGVIGPTRMAYERVIPIVDITARLLSNALSHNQ | failed |
| GKVYTINSGPIYANPIIHHQVNEKIGYLVYSAFESGFDQELFDVFKEFKSQNITELILDLRYNGGGDVTSANLISSCIAGDLCIDKTFASYRYNDERMKVLGNQRPIQKFAYSQYDNLSTSLSAGGLNLRKIYCLVTDDSASASELVINALRGIDIEVILIGTTTHGKNVGMEGVELTAGTDKYLLFPITFQAYNAKGFGDFENGFTPDYEINENKPNGEYFEGYGDFGAESDPLYAKAISLISGNEVTT | failed |
| GLPRRAVTQLVEQPLVVVDFLAHITAQGGHAAVIGWKDLAYAGVIDSGGVCENIIAIPNPGTEPLNVAAVLCEGLDVVVYKGPEISLSPTRARPLLGKLRQGTAALVMVGTKVSSPALSVDAEITDYVGIGAGSGRIRGVEMQVRAVSKTHGVRSGKVLISRP | failed |
| GMKAADFTYVTVHGDNSRMSRLKAQYTMLFFYDPDCSNCRKFEKLFAEIPAFVEMVENGTLRVLAIYPDENREEWATKAVYMPQGWIVGWNKAGDIRTRQLYDIRATPTIYLLDGRKRVILKDTSMEQLIDYLATQAG | not failed |
| GNLSFLATSDGASLAYRLDGAAEKPLLALSNSIGTTLHMWDAQLPALTRHFRVLRYDARGHGASSVPPGPYTLARLGEDVLELLDALEVRRAHFLGLSLGGIVGQWLALHAPQRIERLVLANTSAWLGPAAQWDERIAAVLQAEDMSETAAGFLGNWFPPALLERAEPVVERFRAMLMATNRHGLAGSFAAVRDTDLRAQLARIERPTLVIAGAYDTVTAASHGELIAASIAGARLVTLPAVHLSNVEFPQAFEGAVLSFLGA | not failed |
| GPHQRLEKLDSLLSDYDILSLSNIQQHSVRKRDLQTSTHVETLLTFSALKRHFKLYLTSSTERFSQNFKVVVVDGKNESEYTVKWQDFFTGHVVGEPDSRVLAHIRDDDVIIRINTDGAEYNIEPLWRFVNDTKDKRMLVYKSEDIKNVSRLQSPKVCGYLKVDNEELLPKGLVDREPPEGKT | not failed |
| GQGVSRSGALDLGALRSANRTVGNPSDMACVESVLGGLSFSCHGSAVIAITGAHTPVTITSASGLQWQASNYQPIELETGDRVSLGSPKAGLRSYLAIRGGFDVTPVLGSLSTDTLAQLGPEALATGDRLGFTAPVNGTSVSLNEAPAFELPTTANIVTLDVVMGPRTDWFTENAIQRLSSQLWRVTPQSNRVGIRLAGDTPLERSNHQELPSEGTSVGAIQVPASGQPVLFLADHPLTGGYPVIASVASHHLDLAGQIPVNAQIRFNPLGAFEEMQPSTEASFSTADAKNNS | failed |
| GQLDLLRSNTGLLYRIKDSQNAGKMKGSDNQEKLVYQIIEDAGNKGIWSRDVRYKSNLPLTEINKILKNLESKKLIKAVKSV | not failed |
| GQVDGEDVVSISSADLDETEGNLNMTTVSVRSGMTLSQVISRWLFTDDTIVPIEQVFPPGQSTEEVEESNRTAFISSESSATIAAMNYLNIPVEVEVAEVLTDSAATGIFEPGDKLLSIDGTAISTPGDAQTIVRSKAPGDEITISYERNDAESQATITLREHPDDSSVALLGISMLSVP | failed |
| GRRFVMVPGIGGSGPEHWQSHWESLYPNTLRIEPNSWDEPDLADWFAALDRAVAAAPYPPVLVCHSLGCLLFAHWRAASSRAIAAAFLVAVPDPSGPAFPAQAKAFGALPATGFGERPVLAVASENDPYDPEASAIAWAVRQGAWPRRLGPRGHLNEASNIGAWPEGQELLADFLDKIGE | failed |
| GSFQYVPVQLQGGAPWGFTLKGGLEHCEPLTVSKIEDGGKAALSQKMRTGDELVNINGTPLYGSRQEALILIKGSFRILKLIVRRRN | not failed |
| GSGCPLLENVISKTINPQVSKTEYKELLQEFIDDNATTNAIDELKECFLNQTDETLSNVEVFMQLIYDSSLCDLF | failed |
| GSHMEKVPGEMEIERRERSEELSEAERKAVQAMWARLYANCEDVGVAILVRFFVNFPSAKQYFSQFKHMEDPLEMERSPQLRKHACRVMGALNTVVENLHDPDKVSSVLALVGKAHALKHKVEPVYFKILSGVILEVVAEEFASDFPPETQRAWAKLRGLIYSHVTAAYKEVGWVQQVPNATTPPATLPSSGP | not failed |
| GSHMPVPSFGEAMAYFAMVKRYLTSFPIDDRVQSHILHLEHDLVHVTRKNHARQAGVRGLGHQS | not failed |
| GSIPRVLISADRSSSGKTTISMGLMAALVSRGYKVQPFKVALDYIDPSYHTEITGRFCRNLDGYLMDEHGILDVYTHACETGGGADIAIIEGVRGLFEGFESLSDVGSTAQIAKILKCPVVFVINARSITRSAAALIGGYKNFDPDVEIAGVILNNIGGRRHAQKAKEAIEHYTGVPVLGIIPRDPSMQISMRHLGLMPALEGRRRFGDGGFENRLHGIEEIINKGIDVDRFLGIAESAKPLTALENSIFSPAVNENSQKPKIGVALDEAFNFYYRDNIDLLEIAGAEIVYFSPVNDPGLPEVDGLYIGGGYPELFAAELEANETMRKSIKEASAAGMPIYAECGGLMYLTEKISTGVPGKGTYHDASMPESTYSMVGALPGHTIMGQTRVVSYNIGTLARDCPIGKKGNSFKGHEFHHSEILEIPDDAEFAIALTRGTGIRGDRDGLIVNNTIGSYAHLHGVAYRELAGSLVEAARKFRDS | failed |
| GSKGSRIELGDVTPHNIKQLKRLNQVIFPVSYNDKFYKDVLEVGELAKLAYFNDIAVGAVCCRVDHSQNQKRLYIMTLGCLAPYRRLGIGTKMLNHVLNICEKDGTFDNIYLHVQISNESAIDFYRKFGFEIIETKKNYYKRIEPADAHVLQKNLKVPSGQNADVQKTDN | failed |
| GSSGSSGMKQATRKPTTPGDILLYEYLEPLDLKINELAELLHVHRNSVSALINNNRKLTTEMAFRLAKVFDTTVDFWLNLQAAVDLWEVENNMRTQEELGRIETVAEYLARREERAKKVA | not failed |
| GSSGSSGPSSPSIDQVEPYSSTAQVQFDEPEATGGVPILKYKAEWRAVGEEVWHSKWYDAKEASMEGIVTIVGLKPETTYAVRLAALNGKGLGEISAASEFKTQPVREPSAPKLEGSGPSSG | not failed |
| GSSGSSGWVAFDKQVLSFDAYLEEEVLDKSQTNYRIRYYKIYFYPEDDTIQVNEPEVKNSGLLQGTSIRRHRITLPPPDEDQFYTVYHFNVGTEVVFYGRTFKIYDCDAFTRNFLRKIGVKVNPPVQSGPSSG | not failed |
